In the RNAGym collection of RNA variant scans (doi:10.1073/pnas.2313332121):
Variants at the floor of the assay were thinned out.

B1: TPR 5TU (parent)
chain: GGAUCUUCUCGAUCUAACAAAAAAGACAAAUCUGCCACAAAGCUUGAGAGCAUCUUCGGAUGCAGAGGCGGCAGCCUUCGGUGGCGCGAUAGCGCCAACGUUCUCAACUAUGACACGCAAAACGCGUGCUCCGUUGAAUGGAGUUUAUCAUG

Variants of: B1
Assay: polymerase ribozyme fitness, log enrichment relative to wild type (log ratio); higher = more active; in vitro selection for triplet polymerase activity
How it was run: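 One round of in vitro selection, in triplicate, was applied to PCR-built, transcribed mutant libraries of each subunit of a heterodimeric triplet polymerase ribozyme. The steps were annealing with a biotinylated primer, partner subunit and triplets, incubation frozen at −7 °C, gel excision of extended constructs, streptavidin-bead capture and RT-PCR. Fitness is the logarithm, base 2, of genotype enrichment over wild-type enrichment from inverse-variance-weighted replicate averages of Illumina-sequenced inputs and outputs, keeping genotypes with ≥10 input reads and ≥1 read per output.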

Point of comparison: GGAUCUUCUCGCUCUAACAAAAAAGACAAAUCUGCCAGAAAGCUUGAGAGCAUCUUCGGAUGCAGAGGCGGCAGCCUUCGGUGGAGCGAUAGCGCCAACGUUCUCAACUAUGACAAGCAGAACGCGUGCUCCGUUGAAUGGAGUUUAUCAUG [A12C C38G C85A C116A A120G], “polymerase ribozyme fitness (log ratio)” value -1.83. Against it:
- GGAUCUUCUCGCUCUAACAAAAAAGACAAAUCUGCCACAAAGCUUGAGAGCAUCUUCGGAUGCAGAGGCGGCAGCCUUCGGUGGCGCGAUAGCGCCAACGUUCUCAACUAUGACACGCAAAACGCGUGCUCCGUUGAAUGGCGUUUAUCAUG [A12C A142C] — higher, -1.32
- GGAUCUUCUCGCUCUAACAAAAAAGACAAAUCUGCCACAAAGCUUGAGAGCAUCUUCGGAUGCAGAGGCGGCAGCCUUCGGUGGCGCGAUAGCGCCAGCGUUCUCAACUAUGACACGCAAAACGCGUGCUCCGUUGAAUGGAGUUUAUCAUG [A12C A98G] — higher, -0.18
- GGAUCUUCUCGCUCUAACAAAAAAGACAAAUCUGCCAAAAAGCUUGAGAGCAUCUUCGGAUGCAGAGGCGGCAGCCUUCGGUGGCGCGAUAGUGCCAACGUUCUCAACUAUGACACGCAAAACGCGUGCUCCGUUGAAUGGAGUUUAUCAUG [A12C C38A C93U] — higher, -1.62
- GGAUCUUCUCGCUAUAACAAAAAAGACAGAUCUGCCACAAAGCUUGAGAGCAUCUUCGGAUGCAGAGGCGGCAGCCUUCGAUGGCGCGAUGGUGCCAACGUUAUCAACUAUGACACGCAAAACGCGUGCUCCGUUGAAUGGAGUUUAUCAUG [A12C C14A A29G G81A A91G C93U C103A] — lower, ≤ -4.2
- GGAUCUUCUCGCUCUAACAAAACAGACAAAUCUGCCACAAAGCUUGAGAGCAUAUUCGGAUGCAGAGGCGGCAGCCUUCGUUGGCGCGAUACCGCCAAAGUUCUCAACUAUGACACGCAAAACGCGUGCUCCGUUGAAUGGAGUUUAUCAUG [A12C A23C C54A G81U G92C C99A] — lower, ≤ -4.2
- GGAUCUUCUCGCUCUAACAAAAAAGACAUAUCUGCCACAAAGCUUGAGAGCAUCUUCGGAUGCAGGGGCGGCAGCCUUCGGUGGCGCGAUAGCGCCAACGGUCUCAACUAUGACACGCAAAACGCGUGCUGCGUUGAAUGGAGUUUAUCAUG [A12C A29U A66G U101G C131G] — lower, ≤ -4.2
- GGAUCUUCUCGCUCUAACAAAAAAGACAUAUCUGCCACAAAGCUUGAGAGCAUCUUCGGAUGCAGAGCCGGCCGCCUUCUGUGCCGCGAUAGCGCCAACGUUCUCAACUAUGACACGCAAAACGCGUGCUCCGUUGAAUGGAGUUUAUCAUG [A12C A29U G68C A73C G80U G84C] — lower, ≤ -4.2
- GGAUCUUCUCGCUCUAACAAAAAAGACAAAUCUGCCAUAAAGCUUGAGAGCAUUUUCGGAUGCAGAGGCGGCAGCUGUCGGUGACGCGAUAGCGCCAACGUUCUCAACUAUGACACGCAAAACGCGAGCUCCGUUGAUUGGAGUUUAUCAUG [A12C C38U C54U C76U U77G G84A U127A A138U] — lower, ≤ -4.2
- GGAUCUUCUCGCUCUAACAAAAAAGACAAAUCUGCCACAGUGCUUGAGAGCCUUUUCGGAUGCAGGGGCGGCAGCCUUCGGUGGCGCGAUAGCGUCAACGUUCUCAACUAUGACACGCAAAACGCGUGCUCCGUUGAAUGGAGUUUAUCAUG [A12C A40G A41U A52C C54U A66G C95U] — lower, ≤ -4.2
- GGAUCUUCUCGCUCUAACAAUAAAGACAAAUCUGCCACAAAGCUUGAGAGCAACUUCGCGUGCAGAGGCGGCAGCCUUCGGUGACGCGAUAGCGCCAACGUUCUCAACUAUGACACGCAAAACGCGUGCUCCGUUGAAUGGAGUUUAUCAUG [A12C A21U U53A G59C A60G G84A] — higher, -0.862
- GGAUCUUCUCGCUUUAACAAAAAAGACAAAUCUGCCACAAAGCUUGAGAGCAUCAUCGGAUGCAGAGGCGGCAGCCUUCGGUGGCGCGAUAGCGCCAGCGUUGUCAACUAUGACACGCAAAACGCGUGCUCCAUUGAAUGGAGUUUAUCAUG [A12C C14U U55A A98G C103G G133A] — lower, ≤ -4.2
- GGAUCUUCUCGCUCUAACAAAAAAGACAAAUGUGCCACAAAGCUUGAGAGCAUCUUCGGAUGCAGAGGCGGCAGCCUUCGGUGUCGCGAUAGCGCCAACGUUCUCAACUAUGACACGCAAAACGCGUGCUCCGUUGAAUGGAGUUUAUCAUG [A12C C32G G84U] — lower, ≤ -4.2
- GGAUCUUCUCGCUCUAACAAAAAAGACAAAUCUGCCACAAAGCUUGUGAGCAUCAUCGGAUGCAGAGGCGGCAGCCUUCGGUGGCGCGAUAGCGCCAACGUUCUCAACUAUGACACGCAAAACGCGUGCUCCGUUGAAUGGAGUUUAUCAUG [A12C A47U U55A] — higher, -1.41
- GGAUCUUCUCGCUCUAACAAAAGAGACAAACCUGCCACAAAGCUUGAGAGCAUCAUCGGAUGCAGAGGCGGCAGCCUUCGGUGGCGCGAUAGCGCCAACGUUCUCAACUAUGACACGCAAAACGCGUGCUCCGUUGAAUGGAGUUUAUCAUG [A12C A23G U31C U55A] — lower, ≤ -4.2
- GGAUCUUCUCGCUCUAACAAAAAAGACAAUUCUGCCUCAAAGCUUGAGUGCAUCUUUGGAUGCAGAGGCGGCAGCCUUCGGUGGCGCGAGUGCGCCAACGUUCUCAUCUAUGACACGCAAAACGCGUGCUCCGUUGAAUGGAGUUUAUCAUG [A12C A30U A37U A49U C57U U90G A91U A107U] — lower, ≤ -4.2
- GGAUCUUCUCGCUCUAACAAAAAAGAAAAAUCUGCUACAAAGCUUGAGAGCAUCUUCGGAUGCAGAGGCGGGAGCCUUCGGUGGCGCGAUAGCGCCAACGUUCUCAACUAUGACACGAAAAACGCGUGCUCCGUUGAAUGGAGUUUAUCAUG [A12C C27A C36U C72G C118A] — lower, ≤ -4.2
- GGAUCUUCUCGCUCUAACAAAAAAGACAAAUCUGCCACAACGCUUGAGAGCAUUUUCGGAUGCAGAGGCGGCAGCCUUCGGUGGCGCGAUAGCUCCAACGUUCUCAACUAUGACACGCAAGACGCGUGCUCCGUUGAAUCGAGUUUAUCAUG [A12C A41C C54U G94U A121G G140C] — lower, ≤ -4.2
- GGAUCUUCUCGCUCUAACAAAAAAGACAAGUCUGCCACAAAGCUUGAGAGCAUCUUCGGAUGCAGAGGCGGCAGCCUUCGGUGGCGCGAUAGCGCCAACGUUCUCAACUAUGACACGCAAAACGCGUGCUCCGUUGAAUGGAGUUUAUCAUG [A12C A30G] — lower, -3.77
